Reference: patent publication US20240180962A1

Molecular target: CD20 on ARH-77 tumor cells (CD20+ plasma cell leukemia cell line, ATCC CRL-1621) (human) (UniProt P11836)
Experiment: cell-based or functional assay

Sequence of UniProt P11836 (P11836 whole entry): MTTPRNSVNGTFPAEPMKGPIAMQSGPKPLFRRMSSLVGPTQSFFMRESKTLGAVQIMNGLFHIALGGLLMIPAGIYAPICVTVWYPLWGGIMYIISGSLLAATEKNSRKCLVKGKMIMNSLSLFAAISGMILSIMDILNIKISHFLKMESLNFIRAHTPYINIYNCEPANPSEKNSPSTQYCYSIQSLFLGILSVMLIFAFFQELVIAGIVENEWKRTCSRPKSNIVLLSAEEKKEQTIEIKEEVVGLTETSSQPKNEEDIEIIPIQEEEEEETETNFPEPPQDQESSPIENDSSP

Work on obinutuzumab (antibody) yielded an AB-101 killing activity (ADCC, 4 hour caspase assay against ARH-77 cells) of 66 fold.
